“Also recorded” adds a separate entry of the source.
B1: GDNF: glial cell line-derived neurotrophic factor, purified / human recombinant protein used to stimulate cells (protein)
chain: SPDKQMAVLPRRERNRQAAAANPENSRGKGRRGQRGKNRGCVLTAIHLNVTDLGLGYETKEELIFRYCSGSCDAAETTYDKILKNLSRNRRLVSDKVGQACCRPIAFDDDLSFLDDNLVYHILRKHSAKRCGCI

How the values were obtained:
Assay type in all cases: cell-based, human
PSC27 fibroblasts = assay: Induction of DDSP factors in PSC27 fibroblasts with mTOR inhibition before ionizing radiation; conditions: summary statement
Protocol: The effects of inhibiting mTOR signaling in the context of genotoxic stress was evaluated. PSC27 fibroblasts were treated with Rapamycin (RAPA) prior to ionizing radiation.

epithelial CaP cells [1] = assay: Proliferation of epithelial CaP cells on GDNF stimulation
Protocol: (§1) To study the effect GDNF has on tumor growth, we have used two experimental approaches have been used. 1) the effect of purified GDNF on cell proliferation of epithelial cells was analyzed and 2) GDNF over-expressing and secreting human prostate fibroblasts were generated which can also be used in co-culture and in vivo experiments. […] GDNF can act in the absence of RET via GFRA1 activating SFK pathways or through the activation of the RET/GFRA1 complex activating the Ras/Raf/Erk pathway. In our experiments we determined that both pathways were activated in GDNF sensitive cell lines (FIG. 23B). […] The number of epithelial cell lines are being expanded and analyzed after GDNF stimulation. GDNF-activated SFK and Erk pathways can lead to reduced sensitivity to pro-apoptotic treatments or decrease drug sensitivity.

epithelial CaP cells [2] = assay: Src/SFK and Erk pathway activation in CaP cells on GDNF stimulation; conditions: GDNF responsive cells
Protocol: as §1

PSC27 stromal cells = assay: SFK and Ras/Raf/Erk pathway activation in PSC27 stromal cells on GDNF stimulation
From the text: Stimulation of epithelial CaP cells with GDNF leads to the activation of the SFK and the Ras/Raf/Erk pathways (FIG. 25). To determine if the same pathways are involved in the pro-proliferative effect on the PSC27 stromal cells, PSC27 cells were stimulated with hrGDNF or conditioned medium from PSC27/iGDNF-V5 cells. […] Additional more downstream effector proteins potentially involved in these effects are also being examined.

Molecule | suppression of key DDSP proteins including Wnt16B (PSC27 fibroblasts) | proliferation of Ret and GFRA1 negative cells (epithelial CaP cells [1]; after 3 or 5 days) | GDNF concentration of maximum stimulation of proliferation (epithelial CaP cells [1]; in the culture medium) | proliferation of cells expressing GDNF receptors Ret and/or GFRA1 (epithelial CaP cells [1]; increasing concentrations of GDNF) | Src (SFK) and Erk (Ras/Raf/Erk) pathways (epithelial CaP cells [2]) | Ras/Raf/Erk and SFK pathways in stromal cells (PSC27 stromal cells)
CO[C@H]1C[C@@H]2CC[C@@H](C)[C@@](O)(O2)C(=O)C(=O)N2CCCC[C@H]2C(=O)O[C@H]([C@H](C)C[C@@H]2CC[C@@H](OCCO)[C@H](OC)C2)CC(=O)[C@H](C)/C=C(\C)[C@@H](O)[C@@H](OC)C(=O)[C@H](C)C[C@H](C)/C=C/C=C/C=C/1C [RAD001] | effectively suppress | – | – | – | – | –
B1 | – | did not show any increase in proliferation; also recorded: do not show any differences in proliferation | around 10 ng/ml | induced cell proliferation; also recorded: increased proliferation | activated; also recorded: activation | stimulated; also recorded: activation
